We go through one substance from patent US9696316B2, “Conformationally dynamic peptides” (SYSTEM OF SYSTEMS ANALYTICS, INC., priority 2009, dated 2017).

“Also recorded” adds a separate entry of the source.

Holding throughout (assay type): binding
The subject of data set [1] is fibrillar amyloid target protein. The data set can be described thus: Signal gain on conformational change in the presence of fibrillar amyloid. On the procedure: Peptide Probe 22 (SEQ ID NO:2, 2 μM) labeled at each terminus with pyrene is incubated in 0 to 80% TFE in tris buffer (10 mM Tris, pH 7.0) for 30 min. The reaction is measured by TECAN fluorimeter, and the excimer:monomer fluorescence ratio is recorded. […] When tested for the ability to undergo conformational change in the presence of a fibrillar amyloid target protein, Peptide 22 performs 2.6 times greater than the reference peptide (SEQ ID NO:1).

Data set [2] has as its target T1, Aβ42 oligomer (Homo sapiens, UniProt P05067). In words: Aqueous Aβ oligomer assay, pyrene fluorescence. The source says:
The conformation of peptide probe bound to the target protein can also be detected by measuring pyrene fluorescence, on the peptide alone and in combination with the target protein. […] The excimer fluorescence associated with the β-sheet conformation has a different wavelength than the monomer fluorescence associated with the alpha-helix conformation, and the excimer:monomer fluorescence ratio is 9:1. […] The addition of Aβ42 oligomer target protein results in a dose-dependent shift of the excimer:monomer fluorescence ratio to 20:1 at the highest Aβ42 oligomer concentration (0.3 μM). This change in excimer:monomer fluorescence ratio reflects a corresponding conformational change in the peptide, that results in increased β-sheet conformation, and decreased α helix conformation.
An Aβ oligomer assay may be conducted in an aqueous solvent, such as water. […] Upon introduction of Aβ oligomer, the fluorescence profile shifts to primarily self-fluorescence (monomeric) (see FIG. 11), which is associated with reduced β-sheet structure, or increased alpha helix structure.
As discussed above, Peptide 22 (SEQ ID NO: 2) undergoes a conformational change upon interaction with Aβ oligomer. FIG. 11 illustrates the fluorescence spectra for Peptide 22 labeled at each terminus with pyrene and incubated in aqueous conditions for several hours at room temperature in 10 mM Hepes (pH 7.0). […] (solid line=Time 0; dashed line=3 hours; dotted line=18 hours).
(§1) Peptide 22 (100 nM) is incubated in water for 15 hours at room temperature with equimolar concentrations ([…]) of several potential Aβ substrates: Aβ42 oligomer (type 1); Aβ42 oligomer (type 2); Aβ1-42 monomer; Aβ1-40 monomer; Aβ1-42 fiber; Aβ1-40 fiber; bovine serum albumin (control substrate); and carbonic anhydrase (control substrate).
With reference to FIG. 13A, Peptide 22 (70 nM) is incubated with […] synthetic Aβ42 oligomer at 25 C, and fluorescence emission spectra is recorded after 3 hours incubation. […] (solid line—no Aβ42 oligomer; dashed/dot line—30 nN Aβ42 oligomer; large dashed line—100 nN Aβ42 oligomer; small dashed line—300 nN Aβ42 oligomer)

For data set [3], the target named is biotinylated Aβ42 oligomers (Homo sapiens, UniProt P05067). The data set can be described thus: In vitro affinity chromatography-based interaction assay (streptavidin beads). The following applies: 4 μM probe. As for the experimental part: In this assay, soluble peptide probes are combined with, for example, soluble target protein oligomers in an in vitro affinity chromatography-based interaction assay. For this example, target protein is labeled with an affinity molecule, such as biotin, and incubated with a labeled peptide probe. After incubation, the mixture is incubated with the capture moiety, such as streptavidin, on a support, for example a column or beads, such that the target protein is captured. After washing of unbound material, the support can be examined for detection of the labeled peptide probe, which would indicate the presence of bound target protein-peptide probe complexes on the support. Alternatively, the bound material may be eluted and then examined for detection of the labeled peptide probe. Again, detection of the labeled peptide probe would indicate the presence of target protein-peptide probe complexes in the eluant. FIGS. 5A and 15A illustrate an affinity chromatography assay using biotin-labeled target protein and streptavidin-coated beads. This type of assay is useful, for example, for assessing the efficacy of a given peptide probe. […] The beads are washed with PBS to remove unbound material and the captured material is analyzed by SDS-PAGE. […] […]
biotinylated Aβ42 oligomers, sequence (P05067 672-713 limits assumed): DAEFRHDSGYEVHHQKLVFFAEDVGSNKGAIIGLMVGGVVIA

Data set [4] has as its target T1, Aβ42 oligomer. The data set can be described thus: CD analysis of peptide probe with target protein. The following applies: 10 mM sodium phosphate pH 7.0, 3 hours. The source says: The conformation of the peptide probe bound to the target protein can be assessed by CD analysis. […] The peptide alone is highly alpha helical (36%). Upon mixing of Peptide 38 with the target protein, the peptide undergoes a conformation shift that results in increased β-sheet conformation, and decreased α helix conformation. That is, the secondary structure of Peptide 38 is altered such that the proportion of a helix is halved (18%), while the proportion of β-sheet structure is enhanced from 20% to 31%. […] Circular dichroism (CD) analysis is used to determine the secondary structure of Peptide 22, synthetic Aβ42 oligomer, and a mixture thereof. Samples are incubated in 10 mM sodium phosphate (pH 7.0) for 3 hours at room temperature before measuring CD. For each sample, the relative ellipticity is evaluated from 190-260 nm. […] Each data set represents the average of three separate spectral scans.

A further data set deals with T2, Aβ1-40 monomer (Homo sapiens, UniProt P05067).
T2 construct: Aβ1-42 monomer; Aβ1-40 monomer; Aβ1-42 fiber; Aβ1-40 fiber
T2 sequence (P05067 672-711 limits assumed): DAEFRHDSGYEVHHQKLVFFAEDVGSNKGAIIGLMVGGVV
The data set can be described thus: Specificity assay, pyrene fluorescence. The following applies: 100 nM peptide, water, 15 hours, 0-300 nN substrate. As for the experimental part: as §1

A further data set addresses T3, Aβ1-42 fiber (Homo sapiens, UniProt P05067).
T3 construct: Aβ1-42 monomer; Aβ1-40 monomer; Aβ1-42 fiber; Aβ1-40 fiber
The data set can be described thus: Specificity assay, pyrene fluorescence. The following applies: 100 nM peptide, water, 15 hours, 0-300 nN substrate. As for the experimental part:
as §1

For the next data set, the target named is T4, Aβ1-40 fiber (Homo sapiens, UniProt P05067).
T4 construct: Aβ1-42 monomer; Aβ1-40 monomer; Aβ1-42 fiber; Aβ1-40 fiber
T4 sequence (P05067 672-711 limits assumed): as above
The data set can be described thus: Specificity assay, pyrene fluorescence. The conditions noted are these: 100 nM peptide, water, 15 hours, 0-300 nN substrate. As for the experimental part:
as §1

In the next data set the target is T5, Aβ1-42 monomer (Homo sapiens, UniProt P05067).
T5 construct: Aβ1-42 monomer; Aβ1-40 monomer; Aβ1-42 fiber; Aβ1-40 fiber
T5 sequence (P05067 672-713 limits assumed): as the sequence (P05067 672-713 limits assumed) above
The data set can be described thus: Specificity assay, pyrene fluorescence. The conditions noted are these: 100 nM peptide, water, 15 hours, 0-300 nN substrate. As for the experimental part:
as §1

A further data set has as its target bovine serum albumin (Bos taurus, UniProt P02769). In words: Specificity assay, pyrene fluorescence (control substrate). The following applies: 100 nM peptide, water, 15 hours, 0-300 nN substrate. As for the experimental part:
as §1

The subject of another data set is carbonic anhydrase. The data set is described as above. The following applies: 100 nM peptide, water, 15 hours, 0-300 nN substrate. On the procedure: as §1

T1 sequence (P05067 672-713 limits assumed): as above
bovine serum albumin, sequence (P02769 25-607): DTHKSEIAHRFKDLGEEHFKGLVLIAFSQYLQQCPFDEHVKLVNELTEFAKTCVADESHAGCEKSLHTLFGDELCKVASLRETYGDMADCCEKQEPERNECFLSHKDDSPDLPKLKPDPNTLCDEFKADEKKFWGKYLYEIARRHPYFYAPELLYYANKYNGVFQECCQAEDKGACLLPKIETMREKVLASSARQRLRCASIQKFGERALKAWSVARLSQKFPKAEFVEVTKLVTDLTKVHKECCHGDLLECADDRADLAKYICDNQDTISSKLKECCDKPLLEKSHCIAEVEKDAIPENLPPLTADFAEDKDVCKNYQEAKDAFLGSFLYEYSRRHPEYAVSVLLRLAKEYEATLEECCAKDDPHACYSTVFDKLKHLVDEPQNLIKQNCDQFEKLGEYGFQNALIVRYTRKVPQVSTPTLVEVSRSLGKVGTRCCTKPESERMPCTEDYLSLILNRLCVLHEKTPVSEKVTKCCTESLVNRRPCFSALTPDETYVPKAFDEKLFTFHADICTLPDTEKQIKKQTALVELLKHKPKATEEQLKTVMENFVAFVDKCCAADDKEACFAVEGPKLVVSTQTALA
T3 sequence (P05067 672-713 limits assumed): as the sequence (P05067 672-713 limits assumed) above

Consider “KLVFFAEDVGSNKHAIIELMK (KLVFFAEDVGSNKHAIIELMK) [Peptide 22, Salt bridge at G29H and G33E]”, for which the “maximal signal gain in the presence of fibrillar amyloid target protein relative to the reference peptide (SEQ ID NO:1)” value in [1] is “about 2.6 times”. Moreover, the “pyrene monomer (self) fluorescence (370-420 nm) versus Aβ42 oligomer concentration” value with Aβ42 oligomer [2] (70 nM peptide, 0, 30, 100, 300 nM synthetic Aβ42 oligomer, 25 C, 3 hours (FIG. 13A)) is reported as “increases with Aβ42 oligomer concentration in a dose-dependent manner”. For the same substance, the “fluorescence over time in the absence of oligomer” value in the data set with Aβ42 oligomer [2] (10 mM Hepes pH 7.0, room temperature, 0, 3, 18 hours (FIG. 11)) is recorded as “stable over time”. For the same substance, the “reactivity with Aβ42 oligomers (transition from pyrene excimer fluorescence to pyrene self-fluorescence)” value with Aβ42 oligomer [2] (aqueous assay) is listed as “react with Aβ42 oligomers”. For the same substance, in the data set with Aβ42 oligomer [2] (versus monomers, fibers and control proteins), the “preferential binding by state of self-aggregation of Aβ protein” value was “preferentially binds to Aβ protein in the form of soluble Aβ oligomers”. Besides, the “capture of labeled peptide probe with biotinylated Aβ42 oligomer on streptavidin beads (SDS-PAGE)” value in [3] is on record as “directly binds to biotinylated Aβ42 oligomer”. Also, the “β sheet secondary structure (CD)” value with Aβ42 oligomer [4] (4 μM peptide alone, room temperature) was determined as 36%; with Aβ42 oligomer [4] (4 μM peptide incubated with 33 nM synthetic Aβ42 oligomer) it was 43%. For the same substance, the “fluorescence response to Aβ40 monomer” value with Aβ1-40 monomer is “no change in fluorescence”. Moreover, the “fluorescence response to Aβ42 fibers” value in the data set with Aβ1-42 fiber was “some dose-dependent increase in monomer fluorescence”. For the same substance, in the data set with Aβ1-40 fiber, the “fluorescence response to Aβ40 fibers” value is “no change in fluorescence; also recorded: slight fluorescence response”. In the data set with Aβ1-42 monomer, the “fluorescence response to Aβ42 monomer” value is listed as “no change in fluorescence; also recorded: slight fluorescence response”. Further, the “fluorescence response to BSA control” value in the data set with bovine serum albumin is “no change in fluorescence”. Further, the “fluorescence response to Anhydrase control” value with carbonic anhydrase is reported as “no change in fluorescence”.
